Laboratory results as given in paper PMC10031235 (Protein Science : A Publication of the Protein Society, 2023).

Target: the molecule itself
Assay: SEC; size-exclusion chromatography of purified PSAT in solution (Figure S7); conditions not shown

B1: human phosphoserine aminotransferase (PSAT-β) (enzyme)
chain: MDAPRQVVNFGPGPAKLPHSVLLEIQKELLDYKGVGISVLEMSHRSSDFAKIINNTENLVRELLAVPDNYKVIFLQGGGCGQFSAVPLNLIGLKAGRCADYVVTGAWSAKAAEEAKKFGTINIVHPKLGSYTKIPDPSTWNLNPDASYVYYCANETVHGVEFDFIPDVKGAVLVCDMSSNFLSKPVDVSKFGVIFAGAQKNVGSAGVTVVIVRDDLLGFALRECPSVLEYKVQAGNSSLYNTPPCFSIYVMGLVLEWIKNNGGAAAMEKLSSIKSQTIYEIIDNSQGFYVCPVEPQNRSKMNIPFRIGNAKGDDALEKRFLDKALELNMLSLKGHRSVGGIRASLYNAVTIEDVQKLAAFMKKFLEMHQL
modifications: pyridoxal 5'-phosphate covalently bound to Lys200 (internal aldimine); pyridoxamine phosphate in place of PLP in some chains
notes: human phosphoserine aminotransferase, PSAT1 (PSAT-β), wild type, EC 2.6.1.52; gene coding for human PSAT-β cloned in a modified pET28b; electron density continuous from residue 6 to 370; also called PSAT1; human PSAT; source: E. coli BL21(DE3) tuner, purified (IMAC Talon; Superdex 75 before crystallization)
With B1 as the protein, how does the “stoichiometry N” value read?
The value was 2.
